From patent publication US7341836B2, “Modified cyclic nucleotide gated ion channels” (The Regents of the University of Colorado, priority 2001, dated 2008)
Values joined by “and” are separate entries in the source; they are usually repeats but may differ in a detail not shown here. Equal entries are not always repeated.

What was measured:
[1] = system: PDE III; settings: cited from earlier work
[2] = biological target: T1, PDE II (Homo sapiens, UniProt O00408); settings: read-out: IC50, PDE II; cited from earlier work
T1 construct: host or cells: heterologously expressed human PDE; human heart
T1 sequence (O00408 whole entry): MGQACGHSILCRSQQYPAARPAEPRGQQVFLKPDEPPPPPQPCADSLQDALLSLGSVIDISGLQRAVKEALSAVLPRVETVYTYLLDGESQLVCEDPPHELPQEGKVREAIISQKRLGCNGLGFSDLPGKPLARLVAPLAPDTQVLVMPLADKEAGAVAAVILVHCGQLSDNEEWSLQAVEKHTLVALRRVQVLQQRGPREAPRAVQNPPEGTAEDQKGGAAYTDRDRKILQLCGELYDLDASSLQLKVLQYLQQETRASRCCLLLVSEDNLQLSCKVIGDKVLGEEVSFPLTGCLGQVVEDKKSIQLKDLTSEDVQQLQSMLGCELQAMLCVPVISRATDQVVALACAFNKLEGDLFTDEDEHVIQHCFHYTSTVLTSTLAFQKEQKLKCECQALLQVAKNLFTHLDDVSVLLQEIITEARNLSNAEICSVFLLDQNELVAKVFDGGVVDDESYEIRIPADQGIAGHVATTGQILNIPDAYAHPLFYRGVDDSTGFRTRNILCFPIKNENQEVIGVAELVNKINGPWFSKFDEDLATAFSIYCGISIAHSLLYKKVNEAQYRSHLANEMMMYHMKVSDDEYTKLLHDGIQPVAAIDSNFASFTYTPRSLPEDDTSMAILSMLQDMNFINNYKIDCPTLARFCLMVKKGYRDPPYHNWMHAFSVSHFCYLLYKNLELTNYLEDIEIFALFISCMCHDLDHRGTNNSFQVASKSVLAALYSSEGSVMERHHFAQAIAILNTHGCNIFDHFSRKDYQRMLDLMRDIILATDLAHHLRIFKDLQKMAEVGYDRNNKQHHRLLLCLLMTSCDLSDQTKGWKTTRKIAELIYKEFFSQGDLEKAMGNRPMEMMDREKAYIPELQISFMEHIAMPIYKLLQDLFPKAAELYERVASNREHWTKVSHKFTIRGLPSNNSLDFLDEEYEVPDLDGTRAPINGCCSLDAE

[3] = system: PDE activity in GH4C1 cells; experiment: Effect of PDE inhibitors, forskolin and VIP on cAMP levels (Ca2+ influx through CNG channels); type: cell-based, rat; settings: basal cAMP; C460W/E583M channels; inhibitor concentration (μM)
Experimental: To further test the utility of this approach, PDE activity in excitable GH4C1 pituitary cells was examined. In all of the experiments shown (See, FIGS. 13-14, and Table 2), 1 μM nimodipine was added at time zero to block Ca^2+ influx though voltage-gated Ca^2+ channels (triggered by membrane depolarization due to Ca^2+ and Na^+ influx through CNG channels). […] FIGS. 13 and 14 each depict experiments done on a single batch of cells. As before, similar results were obtained on three other batches. In the experiments that produced the data shown in Table 2, cAMP concentrations were monitored using Ca^2+ influx through C460W/E583M channels. […] Either 100 μM IBMX or vehicle (-IBMX; control) were added at time zero. Then, 50 μM forskolin were added at 180 seconds d(ΔF/F0)/dt, which is proportional to the Ca^2+ influx rate, was estimated as described in the Examples. Data are provided as mean±standard error. IBMX or vehicle was added at 60 seconds (first arrow in FIG. 13). Either 10 μM forskolin or 100 nM VIP were added at 240 seconds (second arrow in FIG. 13). In the absence of IBMX, large forskolin or VIP-induced increases in Ca^2+ influx were observed. […] This level of basal AC activity was quite different from that observed in HEK-293 cells (See, FIGS. 9 and 10). 1 μM nimodipine was added at time 0 to block endogenous voltage-gated Ca^2+ channels.
To identify the PDE family or families that regulate the local cAMP concentration in GH4C1 cells, cAMP accumulation was monitored in the presence and absence of PDE inhibitors (See, Table 2). Again, the high cAMP affinity C460W/E583M channels were used. PDE inhibitors were added at 60 s. Although the addition of IBMX alone triggered Ca^2+ influx, 10 μM forskolin were added at 240 s as a positive control for CNG channel activity. […] This PDE is likely to have a low Km for cAMP because it is capable of regulating cAMP at concentrations too low for the WT or Δ61-90/C460W/E583M channels to detect. Thus, it is contemplated that a Ca^2+-CaM stimulated PDE (type I) is primarily responsible for controlling basal cAMP signals in GH4C1 cells.
In addition, PDE activity was monitored using Δ61-90/C460W/E583M channels to detect changes in cAMP concentration (See, FIG. 14). PDE inhibitors and forskolin were added as described above. With this construct, it was not possible to observe changes in cAMP concentration due to inhibition of PDE activity alone. […] Inhibitors specific to other PDE types had no effect on the forskolin-induced Ca^2+ influx (data not shown). […] It is contemplated that Ca^2+ influx through the C460W/E583M channels was saturated at cAMP concentrations below the Km for this PDE. Thus, it is contemplated that there are two different PDE types that regulate local cAMP signals in GH4C1 cells: a low Km, 8-methoxymethyl-IBMX sensitive PDE (type I); and a high Km, RO-20-1724-, rolipram-sensitive PDE (type IV).
GH4C1 rat pituitary cells (ATCC) were maintained in 13 mL Ham's F-10 medium (Life Technologies) supplemented with 14.3 mM NaHCO3, 15% donor horse serum (Gemini), and 2.5% fetal bovine serum, pH 6.8, in 75 cm^2 flasks at 37° C. in a humidified atmosphere of 95% air and 5% CO2. Cells were split weekly (1:4) and washed with fresh medium twice weekly. Cells were plated at ˜60% confluence in 100 mm culture dishes twenty-four hours prior to infection with the CNG-channel-encoding adenovirus constructs (multiplicity of infection=50 plaque forming units per cell). Forty-eight hours post-infection cells were detached, resuspended in serum-containing medium, and assayed within 12 hours.
In this Example, experiments conducted to examine the response of excitable GH4C1 pituitary cells to stimulation by either forskolin or the hormone vasoactive intestinal peptide (VIP), in the presence of absence of PDE inhibitors are described. […]

[4] = system: HEK-293 cells expressing CNG channels; experiment: Forskolin-induced cAMP accumulation monitored by Ca2+ influx (fura-2) through expressed CNG channels; type: cell-based, human; settings: 100 μM IBMX; forskolin 0-50 μM
Experimental: Next, experiments were conducted to assess the ability of each channel construct to detect increases in local cAMP concentration. Changes in cAMP concentration were detected using fura-2 to monitor Ca^2+ influx through CNG channels, as described in the Examples. Ca^2+ influx induced by different concentrations of forskolin, an AC activator, in the presence of 100 μM IBMX, a nonselective PDE inhibitor was measured. This approach allowed comparisons to be made between the cAMP sensitivities of the different channels to changes in cAMP, regardless of variations in expression levels between experiments. In HEK-293 cells expressing the WT channel, addition of forskolin was followed by a brief delay and an increase in Ca^2+ influx (See, FIG. 7, Panel A). The delay decreased and the rate of Ca^2+ influx increased in a dose-dependent manner. Neither effect was saturated at 50 μM forskolin. In cells expressing the E583M channel, addition of forskolin was also followed by a brief delay and an increase in Ca^2+ influx (FIG. 7, Panel B). As with the WT channel, the delay and the initial rate of Ca^2+ influx were dose-dependent. […] In cells expressing the Δ61-90/C460W/E583M channel, addition of forskolin caused similar increases in Ca^2+ influx as the E583M channel, including saturation of the delay and rate of influx at 20 μM (compare FIG. 7, Panel B with FIG. 7, Panel D). The increased response of the modified channels to forskolin treatment is consistent with the apparent cAMP affinities measured in excised patches in the absence of Ca^2+-CaM (C460W/E583M>E583M˜Δ61-90/C460W/E583>WT channels). There are several factors that may have contributed to the apparent lack of a Ca^2+-CaM effect on the channels.
Briefly, HEK-293 were maintained in MEM (Life Technologies Inc.) supplemented with 26.2 mM NaHCO3, 10% (v/v) fetal bovine serum (Gemini), penicillin (50 μg/mL), and streptomycin ([…]), pH 7.0, at 37° C. in a humidified atmosphere of 95% air and 5% CO2. Cells were plated at ˜60% confluence in 100 mm culture dishes twenty-four hours prior to infection with the CNG-channel-encoding adenovirus constructs (multiplicity of infection=10 plaque forming units per cell). […] Twenty-four hours post-infection cells were detached with phosphate-buffered saline containing 0.03% EDTA, resuspended in serum-containing medium, and assayed within 12 hours.

[5] = system: rat olfactory CNG channel α subunit; experiment: Excised inside-out patch recordings, cyclic nucleotide dose-response of CNG channel constructs; type: biochemical; settings: for Imax^cGMP/Imax^cAMP: current at saturating cGMP divided by current at saturating cAMP
Experimental: As described in greater detail herein, the effects of modifications to CNG channels were assessed using the Hill equation, I/Imax=[cNMP]^N/([cNMP]^N+K1/2^N), where I/Imax is the fraction of maximal current, cNMP represents cyclic nucleotide, K1/2 is the concentration that gives half-maximal current, and N is the Hill coefficient, an index of cooperativity. I/Imax^cGMP/Imax^cAMP is the current induced by saturating cGMP divided by the current induced by saturating cAMP. Data (mean±standard deviation of three experiments) were obtained from excised membrane patches using standard patch clamp techniques.
To assess the cyclic nucleotide sensitivity of different CNG channel constructs, excised, inside-out patch recordings were made at room temperature (20-21° C.) using an Axopatch-200A patch clamp amplifier (Axon Instruments Inc.). Pipettes were pulled from borosilicate glass and heat polished. Pipettes were lowered onto the cells and gigaohm seals were formed. Patches were excised by shearing cells from the pipette with a jet of liquid. Ionic currents were elicited by 250 ms pulses to membrane potentials of +50 and −50 mV from a holding potential of 0 mV. Current records were sampled at five times the filter setting and stored on an IBM compatible computer. Records were corrected for errors due to series resistance (pipette resistance was 4.1 ±0.1 MΩ). Both the pipette and bath solutions contained (mM): 130 NaCl, 2 HEPES, 0.02 EDTA, and 1 EGTA, pH 7.6. Cyclic nucleotide-induced currents were obtained from the difference between currents in the presence and absence of cyclic nucleotides. Dose response curves for cAMP and cGMP were obtained at +50 and −50 mV in the same patch. The effects of the modifications were assessed using the Hill equation, I/Imax=[cNMP]^N/([cNMP]^N+K1/2^N), where I/Imax is the fraction of maximal current, cNMP represents cyclic nucleotide, K1/2 is the concentration that gives half-maximal current, and N is the Hill coefficient, an index of cooperativity. K1/2 and N for cAMP were 36±5 μM, 10±2 μM, 1.0±0.3 μM, and […] for WT, E583M, C460/E583M, and Δ61-90/C460W/E583M channels, respectively (See, Rich et al., J. Gen. Physiol. [2001], supra).
The cyclic nucleotide sensitivity of the C460W/E583M CNG channel was assessed in excised, inside-out patches as known in the art (See, Rich et al. [2001], supra). K1/2 and N were 1.1±0.3 μM and 2.1±0.4 at +50 mV; and 1.0±0.3 μM and 2.0 ±0.3 at −50 mV (n=11). With these values, the cAMP concentration could be calculated from currents measured in perforated patch experiments (Rich et al. Proc. Natl. Acad. Sci. [2001], supra).

Molecule | IC50 [1] | IC50 [2] | d(ΔF/F0)/dt [3] | forskolin concentration at which delay and rate of Ca2+ influx saturated [4] | Imax^cGMP/Imax^cAMP ([5]; +50 mV) | Imax^cGMP/Imax^cAMP ([5]; −50 mV) | current elicited by saturating cGMP as % of the current elicited by saturating cAMP ([5]; excised patches)
COc1cc2c(cc1OC)-c1c/c(=N\c3c(C)cc(C)cc3C)n(C)c(=O)n1CC2 [Trequinsin] | 0.0003 µM | 0.5 to 2 µM | 0 s⁻¹ |  |  |  | 
Δ61-90/C460W/E583M: modified rat olfactory cyclic nucleotide-gated ion channel containing the Δ61-90/C460W/E583M mutation, SEQ ID NO:7 (protein, listed as Rattus norvegicus) MMTEKSNGVKSSPANNHNHHPPPSIKANGKDDHRAGSRPQSVAADDDTSPELQRLAEMDTPRPDSFLERFRGPELQTVTTHQGDDKGGKDGEGKGTKKKFELFVLDPAGDWYYRWLFVIAMPVLYNWCLLVARACFSDLQRNYFVVWLVLDYFSDTVYIADLIIRLRTGFLEQGLLVKDPKKLRDNYIHTLQFKLDVASIIPTDLIYFAVGIHSPEVRFNRLLHFARMFEFFDRTETRTSYPNIFRISNLVLYILVIIHWNACIYYVISKSIGFGVDTWVYPNITDPEYGYLAREYIYCLYWSTLTLTTIGETPPPVKDEEYLFVIFDFLIGVLIFATIVGNVGSMISNMNATRAEFQAKIDAVKHYMQFRKVSKDMEAKVIKWFDYLWTNKKTVDEREVLKNLPAKLRAEIAINVHLSTLKKVRIFQDWEAGLLVELVLKLRPQVFSPGDYICRKGDIGKEMYIIKEGKLAVVADDGVTQYALLSAGSCFGEISILNIKGSKMGNRRTANIRSLGYSDLFCLSKDDLMEAVTEYPDAKKVLEERGREILMKMGLLDENEVAASMEVDVQEKLEQLETNMDTLYTRFARLLAEYTGAQQKLKQRITVLETKMKQNHEDDYLSDGINTPEPTAAE |  |  |  | 20 µM | 0.16 ± 0.08 | 0.09 ± 0.06 | 16% and < 20%
